Laboratory results taken from the NTF2 design screens of Basanta et al. (2020).

Assay: protease stability score; higher = more stable; yeast display proteolysis, trypsin and chymotrypsin;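 note: log10 excess protease needed over predicted unfolded state with 0 meaning unfolded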

| Sequence | protease stability score |
| --- | --- |
| DEKELQKVLQKVMKLFQNGNIEELQKVVKDDVQLRYADKEYHGPDAVKTVVKRYRDLGAKVEYDELHVEGDKATAKVRADYGGTTVRMKVTYKVTGQKVDRMQVKYDEKAQKQIKHG | -0.142 |
| DEKEMQEFAKEVVKMLQTGDERKNERNVDKDVRVKIGEKVLHGREDNSKWIQEWRDRVDHIRIDHVHVHGEKVIVTVTAVVNGVEVEFQMVMEVHNGRAENVQVKYRNPDELRRFKS | -0.263 |
| DEKENKKLATELNQNLQTGDPDKLARLADPNARAQYGETTYHGRSQIKTMWETLSRQVDNVELKHMHVQGNEVEVVLTFNVNGKEYELRITASFKNGRLKDLQIDPDEIQRAEK | 0.4 |
| DEKEQADDAVRQLESAFNQGDWKKLADLFDENARVQYGDKELHGRQKWTTLVRDMEREHDHVEARVKSVHYHNGKIHLKIEIKAETNGRTTSVHVRYVAVVTNGRVEFENAKYS | 0.973 |
| DEKEQEDFARSFIEAFRTNDPSQIKTLMDEEATVSVGDKTYHGRKAAEDWATQLKEEVDHIDVKDLKVHNGHIEIEVRLKVNGHTRDYLISIQFHNGRVKRMSVSKQ | -0.432 |
| DEKEQEVLDRFMRALRTGNPDDADKNVDKDVNVRYGDRTIKGRESFHEEIRREHQEIRLDYRSVNNQVHNGQANVDVDAIWNVNGRPHRVKVHIRAQIHDGRIKHQRFRMDPEEKKRVDS | 0.054 |
| DEKEQKENAKKMADAIERGDPDKLSELMDENAKVTVGDKTIHGRRQAHEWLKEFRDQADHVEIKEFTVNGNRVIIHVKVRHNGSESERVMTVSWHNGKVKSASFRSN | 0.63 |
| DEKEQTDILLRAMQILTHGDEKRFEELADPNVHVDVGDKTVHGRTQARKWYHDLRRQVDRIHIKHVTVKNGRATIDVVFDRNGRKEKMVLVIQAHNGKIKRAKVEES | -0.125 |
| DEKESADRMIQRLQELMDQNNEEEIKNEVDENARAVVGDKEYHGDEQFAKALITVVKQYDHISIQIRSFTHTNGKNVATFEATFHHNGKNDTVKIEVVFDEVNGRHNLVRLVMK | 1.22 |
| DEKETHKVLEKIEKVLHNFNIDEAKKVLKDDVRVQYLDEEYHGPDAAEKRLTKVKKLGAQVEYKEAHVEGNRVKAKVQVNVGGRTLEFTVEYTAKGHKVDEFRVQYDEDAQKTIKHG | 0.76 |
| DEKETKKVLEQAAKLFVNGDVHRVMQLGADDVEVEYGDERYHGKDAAKRVIEKHQKLGIKVEYDELHVEGDRVKAKVRADQAGTTAHFTFEYKATGQRVDKMRVKYDETAQKMIKHG | -0.23 |
| DEKETKKVLERIVKIFENGNAEEAKKMGKEDVEVEYGDETKHGPDALYEFIEKMKKLGAKVEYKEVHVEGDKVTVRIQADYGGRRAEMHVTYQATGNRVDNVKLKYSKTAQEMIKHG | 0.084 |
| DEKETQKLLEKLAKYFVNGDLEKVKKVGKEDVEVEYGSERKHGPDAMKEHVETHKRLGIEVRYEEVHVEGDTVTAKVQADVAGHTAEMTVVYQAQGRRVDKVKLKYSEKAQKAIKHG | -0.133 |
| DEKETRKLLKDVAEAFENGNNEEIKKLLKDDVEVQYADKRVHGPDQVVEMVKKYQDLGAKVEYKKLDVRGDTVTVDVQADLGGRTAEFKVTYQAQGQKVDRFKVKYDETAKKLIKHG | 0.22 |
| DEKEVATRFVKTVVEILRRGNPDDWMKLVDPNATAHYGDKTYHGREELKTLMEDRNRHADRIDVDVKSYDAHNGKVQVHVVVVQTHNGRSTTHEVRIVADLHNGDAKIRSIQEQ | 0.713 |
| DEKEVKDADKEMERLMKKNDFQHIVDQMDPNAKIIVGDQDLHGKEEAEKVAQEMDKQIDSIEVKSVHAHGDKAVVHFVNHHNGRNKRVVITLRWSNGRIQEMQIQDQ | -0.157 |
| DEKEVKDNAHDLFRAMQTGDEQEIENLMDENVEAQVGDTTWHGREEAARELVLTQKRYDRVRVDRIQVTGEDVKIDFKLNIDGTKETHILVMRVHNGKIVSMSNETR | 1.51 |
| DEKEVQKVLETMAKMFVNGNNEEVKKLGHDDIQVQYGDEEKHGPDAMVDFIKKYQDLGAEVEYKHLKVEGNEVEVDVEATLGGKTVRYKVKYEATGHKVHRVEVKYTDEAKDAIKKG | 0.657 |
| DEKEYAEQFFRHMEEIYQNGDEDRAQELFDPNARMEVGDKEVHGNEKFREEIHKIKETSDRFSIRVKEIDVHGDKIVVEAERSFEHNGQRRSEVYTVRMVIENGQAKIKSAHHK | 0.235 |
| DEKFKEAVERFIKALQDNNHKEMKDNADPNVKAQVGDSEVHGMDEMLRQLYKRYQELRVSYKHLSITVRGDKVEIRASVKLVHNGTPTEREVSVEVEAKNGRIKSMRINNTK | 0.493 |
